We go through three molecules from patent US20110053865A1 (published 2011).

One experiment has as its target 4E7. In words: Biacore; R&D hIL23. On the technique in general: Surface plasmon resonance follows binding to a sensor surface in real time, without labels.
The target in a further experiment is 124F9. The experiment in a line: Biacore; R&D hIL23.
A further experiment concerns the target 12C10. The experiment in a line: Biacore; R&D hIL23.
Another experiment addresses 124F10. In words: Biacore; R&D hIL23.
Another experiment concerns the target 124D2. In words: Biacore; R&D hIL23.
Another experiment addresses 124E3. The experiment in a line: Biacore; R&D hIL23.
The target of a further experiment is 4A11. In words: Biacore; R&D hIL23.
In a further experiment the target is 4D2. In words: Biacore; R&D hIL23.
In experiment [1] the target is 124G4. The experiment in a line: Biacore; R&D hIL23.
A further experiment has as its target 124B6. The experiment in a line: Biacore; R&D hIL23.
Another experiment has as its target 124C3. The experiment in a line: Biacore; R&D hIL23.
A further experiment concerns the target 124H1. The experiment in a line: Biacore; R&D hIL23.
The next experiment has as its target 12A4. The experiment in a line: Biacore; R&D hIL23.
The target of the next experiment is 12A11. The experiment in a line: Biacore; R&D hIL23.
The target of experiment [2] is 124D11. The experiment in a line: Biacore; R&D hIL23.
The target of the next experiment is 12D11. In words: Biacore; R&D hIL23.
The target of experiment [3] is 124H2. The experiment in a line: Biacore; R&D hIL23.
Experiment [4] has as its target 124D4. The experiment in a line: Biacore; R&D hIL23.
For a further experiment, the target named is 12G7. In words: Biacore; R&D hIL23.
The target of the next experiment is 124E5. In words: Biacore; R&D hIL23.
Experiment [5] addresses 124B5. In words: Biacore; R&D hIL23.
The target of a further experiment is 124C5. The experiment in a line: Biacore; R&D hIL23.
Another experiment concerns the target 4E11. The experiment in a line: Biacore; R&D hIL23.
The next experiment deals with 12F11. In words: Biacore; R&D hIL23.
The target of another experiment is 12D2. The experiment in a line: Biacore; R&D hIL23.
Another experiment addresses 12E11. The experiment in a line: Biacore; R&D hIL23.
A further experiment concerns the target 124F7. The experiment in a line: Biacore; R&D hIL23.
For a further experiment, the target named is 12H2. The experiment in a line: Biacore; R&D hIL23.
Experiment [6] addresses 124H5. In words: Biacore; R&D hIL23.
A further experiment addresses 4E3. The experiment in a line: Biacore; R&D hIL23.
The target of a further experiment is 124G2. The experiment in a line: Biacore; R&D hIL23.
The next experiment has as its target 3E1. In words: Biacore.
In a further experiment the target is 3D4. In words: Biacore.
A further experiment has as its target 3H5. The experiment in a line: Biacore.
The next experiment addresses 3A11. In words: Biacore.
The next experiment has as its target 3A10. In words: Biacore.
For a further experiment, the target named is 4F3. In words: Biacore.
The next experiment has as its target 3C7. The experiment in a line: Biacore.
The target in the next experiment is 3G9. The experiment in a line: Biacore.
The target in the next experiment is 3A7. The experiment in a line: Biacore.
Another experiment concerns the target 1G8. The experiment in a line: Biacore.
Experiment [7] addresses 80C10. In words: Biacore.
The target in another experiment is 121C1 = 84D3. In words: Biacore.
For another experiment, the target named is 121C1. The experiment in a line: Biacore.
The target of experiment [8] is 80C10. In words: Biacore. This is another data set of the same source.
The target of experiment [9] is 124G4. The experiment in a line: Biacore.
Experiment [10] addresses 124D11. The experiment in a line: Biacore.
Experiment [11] addresses 124H2. The experiment in a line: Biacore.
Experiment [12] has as its target 124D4. In words: Biacore.
For experiment [13], the target named is 124B5. In words: Biacore.
Experiment [14] deals with 124H5. In words: Biacore.

Where two headings read alike, the source gives them in different places.

B1: R&D hIL23 (ligand)
chain 1: RAVPGGSSPAWTQCQQLSQKLCTLAWSAHPLVGHMDLREEGDEETTNDVPHIQCGDGCDPQGLRDNSQFCLQRIHQGLIFYEKLLGSDIFTGEPSLLPDSPVGQLHASLLGLSQLLQPEGHHWETQQIPSLSPSQPWQRLLLRFKILRSLQAFVAVAARVFAHGAATLSP
chain 2: IWELKKDVYVVELDWYPDAPGEMVVLTCDTPEEDGITWTLDQSSEVLGSGKTLTIQVKEFGDAGQYTCHKGGEVLSHSLLLLHKKEDGIWSTDILKDQKEPKNKTFLRCEAKNYSGRFTCWWLTTISTDLTFSVKSSRGSSDPQGVTCGAATLSAERVRGDNKEYEYSVECQEDSACPAAEESLPIEVMVDAVHKLKYENYTSSFFIRDIIKPDPPKNLQLKPLKNSRQVEVSWEYPDTWSTPHSYFSLTFCVQVQGKSKREKKDRVFTDKTSATVICRKNASISVRAQDRYYSSSWSEWASVPCS
With B1, the koff was 0.000101 s⁻¹ in the experiment with 4E7; 0.00031 s⁻¹ with 124F9; 0.000289 s⁻¹ with 12C10; 0.000169 s⁻¹ in the experiment with 124F10; 9.08e-05 s⁻¹ in the experiment with 124D2; 0.000261 s⁻¹ in the experiment with 124E3. The koff is 0.00032 s⁻¹ in the experiment with 4A11; 0.000111 s⁻¹ in the experiment with 4D2; 0.000146 s⁻¹ with 124G4 [1]; 0.000249 s⁻¹ in the experiment with 124B6; 0.000123 s⁻¹ with 124C3; 0.000158 s⁻¹ with 124H1. Moreover, the dissociation rate constant (koff) came to 0.000295 s⁻¹ in the experiment with 12A4; 0.000134 s⁻¹ in the experiment with 12A11; 0.000259 s⁻¹ with 124D11 [2]; 0.000121 s⁻¹ with 12D11; 0.000116 s⁻¹ in the experiment with 124H2 [3]; 0.000348 s⁻¹ with 124D4 [4]. Moreover, the koff with 12G7 was found to be 0.000242 s⁻¹; in the experiment with 124E5, 0.000187 s⁻¹; with 124B5 [5], 0.00022 s⁻¹; in the experiment with 124C5 it was 0.000357 s⁻¹; with 4E11, 0.000126 s⁻¹; with 12F11 it was 0.000235 s⁻¹. The koff amounted to 0.000101 s⁻¹ with 12D2; 0.000237 s⁻¹ with 12E11; 0.000382 s⁻¹ in the experiment with 124F7; 0.000126 s⁻¹ in the experiment with 12H2; 0.000246 s⁻¹ in the experiment with 124H5 [6]; 0.000164 s⁻¹ with 4E3. This molecule showed a koff in the experiment with 124G2 of 6.55e-05 s⁻¹.

B2: hIL12 (ligand)
chain 1: RNLPVATPDPGMFPCLHHSQNLLRAVSNMLQKARQTLEFYPCTSEEIDHEDITKDKTSTVEACLPLELTKNESCLNSRETSFITNGSCLASRKTSFMMALCLSSIYEDLKMYQVEFKTMNAKLLMDPKRQIFLDQNMLAVIDELMQALNFNSETVPQKSSLEEPDFYKTKIKLCILLHAFRIRAVTIDRVMSYLNAS
chain 2: B1 chain 2
For the molecule B2, the koff amounted to 0.00956 s⁻¹ with 3E1; 0.00714 s⁻¹ with 3D4; 0.00375 s⁻¹ in the experiment with 3H5; 0.00636 s⁻¹ in the experiment with 3A11; 0.00353 s⁻¹ with 3A10; 0.00255 s⁻¹ in the experiment with 4F3. For the same molecule, the koff stood at 0.0119 s⁻¹ with 3C7; 0.00768 s⁻¹ with 3G9; 0.00588 s⁻¹ with 3A7; 0.000779 s⁻¹ with 1G8; 0.000578 s⁻¹ with 80C10 [7]; 0.0371 s⁻¹ in the experiment with 121C1 = 84D3. Also, the koff in the experiment with 121C1 worked out at 0.0371 s⁻¹; with 80C10 [8], 0.000578 s⁻¹.

B3: R&D mIL23 (ligand)
chain 1: VPRSSSPDWAQCQQLSRNLCMLAWNAHAPAGHMNLLREEEDEETKNNVPRIQCEDGCDPQGLKDNSQFCLQRIRQGLAFYKHLLDSDIFKGEPALLPDSPMEQLHTSLLGLSQLLQPEDHPRETQQMPSLSSSQQWQRPLLRSKILRSLQAFLAIAARVFAHGAATLTEPLVPTA
chain 2: MWELEKDVYVVEVDWTPDAPGETVNLTCDTPEEDDITWTSDQRHGVIGSGKTLTITVKEFLDAGQYTCHKGGETLSHSHLLLHKKENGIWSTEILKNFKNKTFLKCEAPNYSGRFTCSWLVQRNMDLKFNIKSSSSSPDSRAVTCGMASLSAEKVTLDQRDYEKYSVSCQEDVTCPTAEETLPIELALEARQQNKYENYSTSFFIRDIIKPDPPKNLQMKPLKNSQVEVSWEYPDSWSTPHSYFSLKFFVRIQRKKEKMKETEEGCNQKGAFLVEKTSTEVQCKGGNVCVQAQDRYYNSSCSKWACVPCRVRS
For B3, the koff in the experiment with 124G4 [9] came out at 0.00329 s⁻¹; with 124D11 [10] it was 0.00744 s⁻¹; in the experiment with 124H2 [11], 0.00291 s⁻¹; in the experiment with 124D4 [12], 0.0029 s⁻¹; with 124B5 [13], 0.00105 s⁻¹; with 124H5 [14] it was 0.00304 s⁻¹.

A word on the koff: it is a measure of how fast the partners let go of each other.
